Assay results as given in article doi:10.1101/2025.06.25.661518, “Structural insights into DNA annealing and recombination by herpesviral DNA-binding proteins ICP8 and BALF2” (bioRxiv, 2025).

B1: BALF2, DNA-binding protein of Epstein-Barr Virus (natural protein)
chain: MQGAQTSEDNLGSQSQPGPCGYIYFYPLATYPLREVATLGTGYAGHRCLTVPLLCGITVEPGFSINVKALHRRPDPNCGLLRATSYHRDIYVFHNAHMVPPIFEGPGLEALCGETREVFGYDAYSALPRESSKPGDFFPEGLDPSAYLGAVAITEAFKERLYSGNLVAIPSLKQEVAVGQSASVRVPLYDKEVFPEGVPQLRQFYNSDLSRCMHEALYTGLAQALRVRRVGKLVELLEKQSLQDQAKVAKVAPLKEFPASTISHPDSGALMIVDSAACELAVSYAPAMLEASHETPASLNYDSWPLFADCEGPEARVAALHRYNASLAPHVSTQIFATNSVLYVSGVSKSTGQGKESLFNSFYMTHGLGTLQEGTWDPCRRPCFSGWGGPDVTGTNGPGNYAVEHLVYAASFSPNLLARYAYYLQFCQGQKSSLTPVPETGSYVAGAAASPMCSLCEGRAPAVCLNTLFFRLRDRFPPVMSTQRRDPYVISGASGSYNETDFLGNFLNFIDKEDDGQRPDDEPRYTYWQLNQNLLERLSRLGIDAEGKLEKEPHGPRDFVKMFKDVDAAVDAEVVQFMNSMAKNNITYKDLVKSCYHVMQYSCNPFAQPACPIFTQLFYRSLLTILQDISLPICMCYENDNPGLGQSPPEWLKGHYQTLCTNFRSLAIDKGVLTAKEAKVVHGEPTCDLPDLDAALQGRVYGRRLPVRMSKVLMLCPRNIKIKNRVVFTGENAALQNSFIKSTTRRENYIINGPYMKFLNTYHKTLFPDTKLSSLYLWHNFSRRRSVPVPSGASAEEYSDLALFVDGGSRAHEESNVIDVVPGNLVTYAKQRLNNAILKACGQTQFYISLIQGLVPRTQSVPARDYPHVLGTRAVESAAAYAEATSSLTATTVVCAATDCLSQVCKARPVVTLPVTINKYTGVNGNNQIFQAGNLGYFMGRGVDRNLLQAPGAGLRKQAGGSSMRKKFVFATPTLGLTVKRRTQAATTYEIENIRAGLEAIISQKQEEDCVFDVVCNLVDAMGEACASLTRDDAEYLLGRFSVLADSVLETLATIASSGIEWTAEAARDFLEGVWGGPGAAQDNFISVAEPVSTASQASAGLLLGGGGQGSGGRRKRRLATVLPGLEV
notes: also called EBV BALF2; source: insect cells, purified
B2: ICP8, full-length (Herpes Simplex Virus 1 DNA-binding protein) (natural protein)
chain: METKPKTATTIKVPPGPLGYVYARACPSEGIELLALLSARSGDSDVAVAPLVVGLTVESGFEANVAVVVGSRTTGLGGTAVSLKLTPSHYSSSVYVFHGGRHLDPSTQAPNLTRLCERARRHFGFSDYTPRPGDLKHETTGEALCERLGLDPDRALLYLVVTEGFKEAVCINNTFLHLGGSDKVTIGGAEVHRIPVYPLQLFMPDFSRVIAEPFNANHRSIGEKFTYPLPFFNRPLNRLLFEAVVGPAAVALRCRNVDAVARAAAHLAFDENHEGAALPADITFTAFEASQGKTPRGGRDGGGKGAAGGFEQRLASVMAGDAALALESIVSMAVFDEPPTDISAWPLFEGQDTAAARANAVGAYLARAAGLVGAMVFSTNSALHLTEVDDAGPADPKDHSKPSFYRFFLVPGTHVAANPQVDREGHVVPGFEGRPTAPLVGGTQEFAGEHLAMLCGFSPALLAKMLFYLERCDGAVIVGRQEMDVFRYVADSNQTDVPCNLCTFDTRHACVHTTLMRLRARHPKFASAARGAIGVFGTMNSMYSDCDVLGNYAAFSALKRADGSETARTIMQETYRAATERVMAELETLQYVDQAVPTAMGRLETIITNREALHTVVNNVRQVVDREVEQLMRNLVEGRNFKFRDGLGEANHAMSLTLDPYACGPCPLLQLLGRRSNLAVYQDLALSQCHGVFAGQSVEGRNFRNQFQPVLRRRVMDMFNNGFLSAKTLTVALSEGAAICAPSLTAGQTAPAESSFEGDVARVTLGFPKELRVKSRVLFAGASANASEAAKARVASLQSAYQKPDKRVDILLGPLGFLLKQFHAAIFPNGKPPGSNQPNPQWFWTALQRNQLPARLLSREDIETIAFIKKFSLDYGAINFINLAPNNVSELAMYYMANQILRYCDHSTYFINTLTAIIAGSRRPPSVQAAAAWSAQGGAGLEAGARALMDAVDAHPGAWTSMFASCNLLRPVMAARPMVVLGLSISKYYGMAGNDRVFQAGNWASLMGGKNACPLLIFDRTRKFVLACPRAGFVCAASSLGGGAHESSLCEQLRGIISEGGAAVASSVFVATVKSLGPRTQQLQIEDWLALLEDEYLSEEMMELTARALERGNGEWSTDAALEVAHEAEALVSQLGNAGEVFNFGDFGCEDDNATPFGGPGAPGPAFAGRKRAFHGDDPFGEGPPDKKGDLTLDML
notes: also called full-length ICP8 form; source: insect cells, purified

Columns and labels:
[1] = molecular target: the molecule itself; assay: filament reconstitution seen by electron microscopy; protein incubated without DNA under the same conditions as the filament reconstitution; kind of microscopy not told
[2] = molecular target: the molecule itself; assay: cryo-EM structure; ICP8 double filament reconstituted with linear dsDNA carrying long ssDNA tails (T4 polymerase-treated); single-particle analysis of filament segments, 3.2 Å; DNA could not be built into the map

| Protein | binding result [1] | binding result [2] |
| --- | --- | --- |
| B1 | binds |  |
| B2 |  | binds |
